The values that follow come from US20240294593A1 (Genentech, published 2024).

B1: H1.181_L1.140 (XENP32427) (antibody, V domains shown)
VH: EVQLVESGGGLVQPGGSLRLSCAASGFTFSSLGMHWVRQAPGKGLEWVSYISGGSSIIYYADSVKGRFTISRDNAKNSLYLQMNSLRAEDTAVYYCARGGQLVFSPDYWGQGTLVTVSS
VL: DIVMTQSPDSLAVSLGERATINCKSSQSLLHSGNQYNYLTWYQQKPGQPPKLLIYWASTRESGVPDRFTGSGSGTDFTLTISSLQAEDVAVYYCQNDYTYPFTFGSGTKLEIKR
notes: VH-F34L/S55G/R109Q/W112F, VL-N31H/K36Y/S99T (Xencor #); Kabat positions VH-32/52A/97/100, VL-27D/30/93; also called mAb C[PD-1]_H1.181_L1.140; copies: 2 + 2
B2: H1.179_L1.140 (XENP32425) (antibody, V domains shown)
VH: B1 VH with Q101Y
VL: B1 VL
notes: VH-F34L/S55G/R109Y/W112F, VL-N31H/K36Y/S99T (Xencor #); Kabat positions VH-32/52A/97/100, VL-27D/30/93; also called mAb C[PD-1]_H1.179_L1.140; copies: 2 + 2
B3: H1.183_L1.140 (XENP32429) (antibody, V domains shown)
VH: B1 VH with Q101V
VL: B1 VL
notes: VH-F34L/S55G/R109V/W112F, VL-N31H/K36Y/S99T (Xencor #); Kabat positions VH-32/52A/97/100, VL-27D/30/93; also called mAb C[PD-1]_H1.183_L1.140; copies: 2 + 2
B4: H1.185_L1.140 (XENP32431) (antibody, V domains shown)
VH: B1 VH with Q101H
VL: B1 VL
notes: VH-F34L/S55G/R109H/W112F, VL-N31H/K36Y/S99T (Xencor #); Kabat positions VH-32/52A/97/100, VL-27D/30/93; also called mAb C[PD-1]_H1.185_L1.140; copies: 2 + 2
B5: H1.187_L1.140 (XENP32433) (antibody, V domains shown)
VH: B1 VH with Q101W
VL: B1 VL
notes: VH-F34L/S55G/R109W/W112F, VL-N31H/K36Y/S99T (Xencor #); Kabat positions VH-32/52A/97/100, VL-27D/30/93; also called mAb C[PD-1]_H1.187_L1.140
B6: mAb C[PD1]_H1.180_L1.140 (bivalent IgG1) (antibody, V domains shown)
VH: B1 VH with Q101E
VL: B1 VL
notes: Bivalent IgG1 format with E233P/L234V/L235A/G236_/S267K; copies: 2 + 2
B7: mAb C[PD1]_H1.177_L1.140 (bivalent IgG1) (antibody, V domains shown)
VH: B1 VH with Q101R
VL: B1 VL
notes: as for B6
B8: H1.186_L1.140 (XENP32432) (antibody, V domains shown)
VH: B1 VH with Q101A
VL: B1 VL
notes: VH-F34L/S55G/R109A/W112F, VL-N31H/K36Y/S99T (Xencor #); Kabat positions VH-32/52A/97/100, VL-27D/30/93; also called mAb C[PD-1]_H1.186_L1.140; copies: 2 + 2
B9: mAb C[PD1]_H1.176_L1.140 (bivalent IgG1) (antibody, V domains shown)
VH: B1 VH with G53S, Q101R
VL: DIVMTQSPDSLAVSLGERATINCKSSQSLLHSGNQYNYLTWYQQKPGQPPKLLIYWASTRESGVPDRFTGSGSGTDFTLTISSLQAEDVAVYYCQNDYTYPFTFGSGTKLEIK
notes: Bivalent IgG1 format with E233P/L234V/L235A/G236_/S267K
B10: H1_L1.127 (antibody, V domains shown)
VH: B1 VH with L32F, G53S, Q101R, F104W
VL: B1 VL with H31N, Y36K, T99S, Y100H
notes: also called VL-Y100H; Kabat 94
B11: H1_L1.132 (antibody, V domains shown)
VH: B1 VH with L32F, G53S, Q101R, F104W
VL: B1 VL with H31N, Y36K, T99S, Y100Q
notes: also called VL-Y100Q; Kabat 94
B12: H1_L1.133 (antibody, V domains shown)
VH: B1 VH with L32F, G53S, Q101R, F104W
VL: B1 VL with H31N, Y36K, T99S, Y100D
notes: also called VL-Y100D; Kabat 94
B13: H1_L1.134 (antibody, V domains shown)
VH: B1 VH with L32F, G53S, Q101R, F104W
VL: B1 VL with H31N, Y36K, T99S, Y100K
notes: also called VL-Y100K; Kabat 94
B14: H1_L1.128 (antibody, V domains shown)
VH: B1 VH with L32F, G53S, Q101R, F104W
VL: B1 VL with H31N, Y36K, T99S, Y100L
notes: also called VL-Y100L; Kabat 94
B15: H1_L1.129 (antibody, human IgG1, kappa, V domains shown)
VH: B1 VH with L32F, G53S, Q101R, F104W
VL: B1 VL with H31N, Y36K, T99S, Y100W
notes: also called VL-Y100W; Kabat 94

Numbering of substitutions follows the chain as printed. In names and notes the source's numbering stands.

The target of the first assay is T1, human PD-1-His (human, UniProt Q15116 25-167, limits assumed).
T1 construct: Antigen of the Octet assays; not shown: His tag
T1 sequence (Q15116 25-167 limits assumed): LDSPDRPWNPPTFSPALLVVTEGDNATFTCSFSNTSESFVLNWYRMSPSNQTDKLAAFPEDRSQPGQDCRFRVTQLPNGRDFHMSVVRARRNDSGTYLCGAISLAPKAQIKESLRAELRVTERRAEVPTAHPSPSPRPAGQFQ
The assay can be described thus: Octet (BLI), bivalent IgG1 mAb; legend calls the constant apparent (KDapp).
On to B1, for which the Kd worked out at 0.905 nM.

In the case of B2, the Kd worked out at 0.864 nM.

With B3, the Kd is 0.952 nM.

B4: the Kd was 1.06 nM.

B5: the Kd worked out at 1.03 nM.

For the molecule B6, the Kd was found to be 0.601 nM.

On to B7, for which the Kd amounted to 1.6 nM.

B8: the Kd stood at 0.945 nM.

As for B9, the Kd came to 2.13 nM.

The target in another assay is T1, human PD-1-His. The assay can be described thus: Octet.
Consider B10, for which the Kd was 55.5 nM, the off-rate (koff) came to 0.00741 s⁻¹ and the kon turned out to be 133000 M⁻¹ s⁻¹.

As to B11, the Kd came out at 37 nM, the koff stood at 0.00615 s⁻¹ and the kon is 166000 M⁻¹ s⁻¹.

As to B12, the Kd came out at 405 nM, the dissociation rate constant (koff) was determined as 0.0264 s⁻¹ and the association rate constant (kon) is 65100 M⁻¹ s⁻¹.

Regarding B13, the Kd was 91.3 nM, the koff was 0.0153 s⁻¹ and the kon is 168000 M⁻¹ s⁻¹.

For B14, the Kd was determined as 186 nM, the koff worked out at 0.0911 s⁻¹ and the kon stood at 490000 M⁻¹ s⁻¹.

With B15, the Kd was found to be 9.44 nM, the koff was found to be 0.001 s⁻¹ and the kon is 106000 M⁻¹ s⁻¹.

A further assay concerns the target T1, human PD-1-His. The assay can be described thus: Octet (BLI), bivalent IgG1 mAb.
With B1, the koff worked out at 0.000173 s⁻¹ and the kon was 191000 M⁻¹ s⁻¹.

For B2, the koff worked out at 0.00017 s⁻¹ and the association rate constant (kon) is 197000 M⁻¹ s⁻¹.

In turn, B3 had a koff of 0.000178 s⁻¹ and a kon of 187000 M⁻¹ s⁻¹.

Regarding B4, the koff was 0.000169 s⁻¹ and the kon is 160000 M⁻¹ s⁻¹.

B5 yielded a koff of 0.000198 s⁻¹ and a kon of 193000 M⁻¹ s⁻¹.

As to B6, the koff is 0.000154 s⁻¹ and the kon is 256000 M⁻¹ s⁻¹.

Molecule B7 registered a koff of 0.00022 s⁻¹ and a kon of 138000 M⁻¹ s⁻¹.

B8 returned a koff of 0.000179 s⁻¹ and a kon of 189000 M⁻¹ s⁻¹.

Molecule B9 registered a dissociation rate constant (koff) of 0.000278 s⁻¹ and a kon of 131000 M⁻¹ s⁻¹.
